This is an account of results in patent US12427188B2, “Pyocyanine demethylases and related phenazine degrading agents compositions, methods and systems for interfering with viability of bacteria” (priority 2020, dated 2025).

“Also recorded” adds a separate entry of the source.

A short description of data set [1]: Continuous spectrophotometric PYO demethylation assay (specific activity and kinetics of PodA). Type of data set: biochemical. As to conditions: for Activity over range of pH: PodA10 3 μM. The method, then: Specific activity and kinetics of PodA. To determine specific activity and kinetic parameters of PodA for PYO, a continuous spectrophotometric assay monitoring the absorbance of PYO (690 nm) was utilized. Briefly, assays were performed at 25° C. in 100 μL reaction volumes in 96-well plates and reactions were monitored at 690 nm over 10 min. Reaction mixtures contained Phosphate buffer (50 mM, pH 6.0), ethylene glycol (1%, v/v), protein (3 μM) and substrate (for specific activity, 100 μM, for kinetics, varying). Data were acquired using the SpectraMax® M3 Microplate Reader (Molecular Devices) using the Soft Max Pro software every 10 s over 10 min. Path lengths for each well were calculated using Soft Max Pro endpoint readings and slopes were corrected for path lengths of 1 cm.
Specific activity was calculated from the slope of the linear range of (ΔOD690 min^−1) using Beer's Law (A=εcl) with a path length of 1 cm and the molar extinction coefficient of PYO (4,130 M^−1 cm^−1). Equation was solved for c, giving specific activity in nmol min^−1 mg^−1 of PodA. For kinetic parameters, graphs of initial velocity (μM s^−1) versus substrate concentration (μM) were plotted using Prism v8 (GraphPad). The Michaelis-Menten kinetics model was used to determine Km and Vmax. The turnover number (kcat) was determined using the following equation: Vmax=kcat[E], where [E] was the concentration of PodA added. All spectrophotometric assays mentioned above were completed thrice, each in technical triplicate with a representative data set shown. Error bars represent standard deviation as calculated by Prism v8 (GraphPad). Standard deviation for kcat and Kcat KM^−1 was calculated using standard formulas for propagation of error.

Another data set relates to Pseudomonas aeruginosa. The experiment in a line: Crystal violet biofilm assay. Type of data set: cell-based. As to conditions: 24 h incubation, protein added from the beginning. How it is done: Crystal violet assay. Pseudomonas aeruginosa grown overnight in LB were inoculated (1.5%, v/v) and grown for 24 h at 37° C. in 96-well round bottom plates in minimal medium (100 μL) with arginine (40 mM) as the sole carbon source. PodA was added with cells simultaneously and was present during growth and biofilm development. Planktonic cells were removed and attached cells were quantified with crystal violet staining (125 μL. 0.1% w/v), followed by washes with water and de-staining with an acetic acid (30%, v/v) mixture in water. Crystal violet was measured using a SpectraMax® M3 Microplate Reader (Molecular Devices) at an absorbance of 550 nm. Details of procedure were published previously (28)[43].

B1: PodA10: Designed PodA41-162 variant: A53N, I73T, A87V, M99V, A129T; SEQ ID NO: 4 (protein)
chain: MVTMTLDVKNDQVNKHDFGKPGMDVGDMDIFSDTLSVDGKQVGYDGGVCFFTNVTPDNPVTYCELTIHLDAGEIFARSLTPATLAPFTMTITGGTGEYANSKGELTVSGVATPDEKYELKLTK
For the molecule B1, in data set [1] (LB and SCFM, PodA 3 μM), the “catalytic efficiency in growth medium compared to buffer” value is “No change”. Also, in data set [1] (Michaelis-Menten kinetics, 3 μM protein), the “catalytic efficiency compared with PodA^WT” value is reported as “slight increase in efficiency”. Besides, the “PYO demethylation activity relative to wild type” value in data set [1] (PYO 50 μM, PodA variants 3 μM) is on record as “wild-type activity was maintained”. The “Activity over range of pH” value in data set [1] (PYO 100 μM) is “maintained activity over a large range of pH, with no observable preference between a pH of 5-9”; in data set [1] (PYO 100 μM, listed as PodA1041-162) it was “maintained activity over a large range of pH, with no observable preference between a pH of 5.5 and 9”. Also, the “Effect of salts (NaCl and KCl) on activity” value in data set [1] (cystic fibrosis sputum range, 66 mM Na+, 15 mM K+) is “not altered”. In data set [1] (pH 6, PodA 3 μM, PYO 100 μM), the “Effect of slight increase in viscosity (ethylene glycol or glycerol 1% v/v) on activity” value is recorded as “slight ad-vantage; also recorded: slight advantage”. Besides, in the data set with Pseudomonas aeruginosa, the “biofilm attachment (crystal violet)” value is listed as “biofilm attachment defect that was comparable to that achieved by WT PodA41-162”.
